Source: patent US20230295597

Columns and labels:
[1] = target: T1, trADAMTS-13^V313A (truncated ADAMTS-13 mutant, Val313 to Ala)
T1 chain: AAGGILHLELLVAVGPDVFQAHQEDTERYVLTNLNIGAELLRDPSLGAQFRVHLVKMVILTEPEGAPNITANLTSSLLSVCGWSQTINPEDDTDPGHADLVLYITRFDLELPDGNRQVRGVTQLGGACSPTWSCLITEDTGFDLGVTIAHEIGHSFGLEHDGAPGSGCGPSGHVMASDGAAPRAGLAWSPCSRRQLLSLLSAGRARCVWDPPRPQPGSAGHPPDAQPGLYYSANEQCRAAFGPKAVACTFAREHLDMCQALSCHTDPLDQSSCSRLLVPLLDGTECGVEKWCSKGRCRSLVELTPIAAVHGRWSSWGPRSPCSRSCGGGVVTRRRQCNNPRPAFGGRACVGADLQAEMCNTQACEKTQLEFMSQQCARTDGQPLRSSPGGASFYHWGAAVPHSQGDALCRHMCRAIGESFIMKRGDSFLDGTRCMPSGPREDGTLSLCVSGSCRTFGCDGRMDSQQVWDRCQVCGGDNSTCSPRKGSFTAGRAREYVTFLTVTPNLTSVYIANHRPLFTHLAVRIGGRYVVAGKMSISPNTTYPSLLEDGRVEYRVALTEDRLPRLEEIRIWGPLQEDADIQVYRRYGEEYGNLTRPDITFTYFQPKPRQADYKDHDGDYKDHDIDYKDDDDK

[2] = target: T2, trADAMTS-13^V313D (truncated ADAMTS-13 mutant, Val313 to Asp)
T2 chain: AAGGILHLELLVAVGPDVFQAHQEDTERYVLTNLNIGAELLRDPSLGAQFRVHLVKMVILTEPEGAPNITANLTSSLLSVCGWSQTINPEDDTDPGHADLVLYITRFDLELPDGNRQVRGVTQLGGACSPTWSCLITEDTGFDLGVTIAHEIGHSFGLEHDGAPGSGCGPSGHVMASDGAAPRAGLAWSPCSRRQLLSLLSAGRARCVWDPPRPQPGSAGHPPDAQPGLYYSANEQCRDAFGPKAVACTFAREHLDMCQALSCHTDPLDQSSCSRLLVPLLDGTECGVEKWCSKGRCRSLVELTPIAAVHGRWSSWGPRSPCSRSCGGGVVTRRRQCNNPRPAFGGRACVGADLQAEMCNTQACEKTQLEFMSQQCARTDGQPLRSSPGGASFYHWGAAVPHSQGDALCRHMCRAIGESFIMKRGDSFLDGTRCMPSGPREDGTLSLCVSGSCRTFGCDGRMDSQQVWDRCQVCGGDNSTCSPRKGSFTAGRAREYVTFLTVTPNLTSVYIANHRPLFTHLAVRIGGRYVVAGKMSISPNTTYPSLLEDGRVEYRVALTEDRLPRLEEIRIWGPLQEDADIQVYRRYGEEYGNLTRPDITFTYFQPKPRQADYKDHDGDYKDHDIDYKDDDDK

[3] = target: T3, truncated recombinant human ADAMTS-13 variant (MDTCS), trADAMTS-13 WT
T3 chain: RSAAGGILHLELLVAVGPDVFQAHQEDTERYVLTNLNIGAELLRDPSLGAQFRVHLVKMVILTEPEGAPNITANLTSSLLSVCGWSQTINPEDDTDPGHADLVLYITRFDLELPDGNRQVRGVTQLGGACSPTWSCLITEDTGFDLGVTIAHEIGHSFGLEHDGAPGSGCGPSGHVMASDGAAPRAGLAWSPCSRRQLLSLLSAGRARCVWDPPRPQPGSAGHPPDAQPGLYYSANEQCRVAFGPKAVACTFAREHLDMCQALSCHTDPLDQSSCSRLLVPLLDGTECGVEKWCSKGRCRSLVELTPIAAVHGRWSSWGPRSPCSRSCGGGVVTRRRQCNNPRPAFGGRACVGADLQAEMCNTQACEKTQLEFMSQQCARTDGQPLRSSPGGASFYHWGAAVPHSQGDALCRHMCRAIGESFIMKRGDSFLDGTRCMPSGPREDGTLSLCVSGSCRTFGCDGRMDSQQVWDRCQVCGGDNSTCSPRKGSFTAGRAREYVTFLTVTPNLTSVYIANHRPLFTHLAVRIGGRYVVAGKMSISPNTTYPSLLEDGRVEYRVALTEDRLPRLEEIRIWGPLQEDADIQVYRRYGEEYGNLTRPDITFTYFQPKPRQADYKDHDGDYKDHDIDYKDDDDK

B1: tissue plasminogen activator (tPA) (protein)
chain: SYQVICRDEKTQMIYQQHQSWLRPVLRSNRVEYCWCNSGRAQCHSVPVKSCSEPRCFNGGTCQQALYFSDFVCQCPEGFAGKCCEIGNSDCYFGNGSAYRGTHSLTESGASCLPWNSMILIGKVYTAQNPSAQALGLGKHNYCRNPDGDAKPWCHVLKNRRLTWEYCDVPSCSTCGLRQYSQPQFRIKGGLFADIASHPWQAAIFAKHRRSPGERFLCGGILISSCWILSAAHCFQERFPPHHLTVILGRTYRVVPGEEEQKFEVEKYIVHKEFDDDTYDNDIALLQLKSDSSRCAQESSVVRTVCLPPADLQLPDWTECELSGYGKHEALSPFYSERLKEAHVRLYPSSRCTSQHLLNRTVTDNMLCAGDTRSGGPQANLHDACQGDSGGPLVCLNDGRMTLVGIISWGLGCGQKDVPGVYTKVTNYLDWIRDNMRP
Question: With B1 as the protein, how does the “residual proteolytic activity on vWF after 6 hours with or without tPA” value [1] read?
Answer: tPA inhibited the proteolytic activity of trADAMTS-13^R312A and trADAMTS-13^V313A variants on vWF (FIG. 8)

Question: What about the “residual proteolytic activity on vWF after 6 hours with or without tPA” value [2] of the same protein?
Answer: trADAMTS-13^R312K and trADAMTS-13^V313D variants were resistant to inactivation by tPA

Question: What about the “ADAMTS-13 activity with or without preincubation with tPA (technozym kit)” value [3] of the same protein?
Answer: the activity of both trADAMTS-13 and ADAMTS-13 WT was reduced in the presence of tPA (FIG. 4B)

Question: And the “activity of trADAMTS-13 WT after 4 hr in soluble fibrin (2 uM) or PBS, without or with tPA (100 nM)” value [3]?
Answer: The addition of soluble fibrin reversed the tPA-mediated reduction in ADAMTS-13 activity (FIG. 14A)

Question: What about the “cleavage by tPA (Western blot) and residual proteolytic activity on vWF over time” value [3] of the same protein?
Answer: trADAMTS-13 was proteolyzed completely (FIG. 7A) and lost its catalytic activity (FIG. 7B)

Question: And the “cleavage of trADAMTS-13 (500 nM) by tPA (100 nM), Western blot” value [3]?
Answer: in the presence of tPA, it is cleaved (FIG. 4C)
